Reference: the supplement of paper PMC7877785
± gives the uncertainty stated by the source.

Test: self-splicing fitness, log relative to wild type (ln ratio); higher = more splicing; Tetrahymena group I intron in knt gene, E. coli kanamycin selection, DiMSum; sequences stand for … in CUCUCU…GGAGGGAAAAGUUAUCAGGCAUGCACCUGGUAGCUAGUCUUUAAACCAAUAGAUUGCAUCGGUUUAAAAGGCAAGACCGUCAAAUUGCGGGAAAGGGGUCAACAGCCGUUCAGUACCAAGUCUCAGGGGAAACUUUGAGAUGGCCUUGCAAAGGGUAUGGUAAUAAGCUGACGGACAUGGUCCUAACCACGCAGCCAAGUCCUAAGUCAACAGAUCUUCUGUUGAUAUGGAUGCAGUUCACAGACUAAAUGUCGGUCGGGGAAGAUGUAUUCUUCUCAUAAGAUAUAGUCGGACCUCUCCUUAAUGGGAGCUAGCGGAUGAAGUGAUGCAACACUGGAGCCGCUGGGAACUAAUUUGUAUGCGAAAGUAUAUUGAUUAGUUUUGGAGUACUCGUGGUCG
How it was run: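 Pooled colonies went to amplicon sequencing on an Illumina HiSeq 2500 after six replicate transformations. The plates were LB agar with 100 μg/mL carbenicillin, 50 μM IPTG and 0.2% rhamnose, with or without 25 μg/mL kanamycin, incubated overnight at 37°C or 30°C. The E. coli BL21(DE3) library had all eight P1ex-region intron nucleotides randomised, the intron placed in the knt kanamycin-resistance gene on pET-22b(+). DiMSum fitness is the error-weighted combination of replicate fold changes, kanamycin against none, normalised to wild type.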

Sequence | self-splicing fitness (ln) (30 °C) | self-splicing fitness (ln) (37 °C)
GAAAAGCAAUAUUACGCGCU | -0.913 ± 0.11 | -0.301 ± 0.11
CCACAGCAAUAUUACGUAUU | -3.57 ± 0.15 | -2.01 ± 0.14
UAACAGCAAUAUUACGGAGU | -3.7 ± 0.17 | -1.41 ± 0.12
CGACAGCAAUAUUACGGACG | -2.24 ± 0.11 | -1.33 ± 0.15
CCACAGCAAUAUUACGGUAA | -3 ± 0.14 | -2.2 ± 0.18
GUUUAGCAAUAUUACGAAAA | -1.78 ± 0.29 | -0.97 ± 0.25
GUGUAGCAAUAUUACGAUCC | -0.838 ± 0.21 | -0.041 ± 0.46
CUAUAGCAAUAUUACGGAUC | -3.75 ± 0.4 | -2.31 ± 0.25
GUCCAGCAAUAUUACGUAAU | -0.156 ± 0.07 | 0.76 ± 0.081
GUUUAGCAAUAUUACGAGCA | -1.35 ± 0.25 | -0.983 ± 0.48
UUUCAGCAAUAUUACGCUUG | -1.3 ± 0.11 | -0.507 ± 0.11
GUGUAGCAAUAUUACGACGC | -1.8 ± 0.18 | -0.0871 ± 0.22
GCUAAGCAAUAUUACGGUAU | -0.915 ± 0.083 | -0.555 ± 0.1
UGACAGCAAUAUUACGGGCG | -0.223 ± 0.1 | 0.3 ± 0.11
UCAGAGCAAUAUUACGCAUG | -3.13 ± 0.3 | -2.02 ± 0.21
AUUAAGCAAUAUUACGGAUA | -2.12 ± 0.28 | -1.99 ± 0.2
AACAAGCAAUAUUACGCGCG | -0.623 ± 0.093 | 0.651 ± 0.11
GCGGAGCAAUAUUACGUAGU | -2.12 ± 0.23 | 0.836 ± 0.34
UGAGAGCAAUAUUACGUACC | -2.65 ± 0.36 | 
UGAAAGCAAUAUUACGGCCA | -0.0769 ± 0.21 | 0.0533 ± 0.28
UCCUAGCAAUAUUACGCAGG | -1.8 ± 0.46 | -2.88 ± 0.37
ACUGAGCAAUAUUACGAUUU | -1.12 ± 0.082 | -0.446 ± 0.12
AGUAAGCAAUAUUACGGCCG | -0.888 ± 0.11 | -0.63 ± 0.18
GUGCAGCAAUAUUACGCGAU | -3.78 ± 0.31 | -1.45 ± 0.31
UUUCAGCAAUAUUACGCGCG | -0.107 ± 0.18 | -1.01 ± 0.22

Sequence | self-splicing fitness (ln) (30 °C) | self-splicing fitness (ln) (37 °C)
CGCUAGCAAUAUUACGAAUC | -3.64 ± 0.21 | -0.947 ± 0.15
UGUCAGCAAUAUUACGGACU | -1.36 ± 0.12 | 0.712 ± 0.13
GCCUAGCAAUAUUACGAUCC | -1.08 ± 0.093 | 0.0207 ± 0.13
ACUUAGCAAUAUUACGGAUA | -3.09 ± 0.28 | -1.15 ± 0.18
UCCCAGCAAUAUUACGGGUC | -3.67 ± 0.16 | -3.35 ± 0.22
ACUAAGCAAUAUUACGUCUU | -1.5 ± 0.075 | -1.14 ± 0.078
ACCAAGCAAUAUUACGAAGU | -3.09 ± 0.14 | -1.31 ± 0.14
UAUUAGCAAUAUUACGGUGC | -3.77 ± 0.3 | -1.84 ± 0.23
ACCGAGCAAUAUUACGUUGC | -3.29 ± 0.32 | -1.33 ± 0.25
GACAAGCAAUAUUACGGUAU | -1.29 ± 0.073 | -1.17 ± 0.087
AACGAGCAAUAUUACGUGAC |  | -2.76 ± 0.23
CGUUAGCAAUAUUACGGGCA | -0.756 ± 0.15 | -1.2 ± 0.11
UGUGAGCAAUAUUACGAUCC | -2.29 ± 0.31 | -1.87 ± 0.39
CGGCAGCAAUAUUACGUCGG | -1.42 ± 0.079 | -0.417 ± 0.098
UCUCAGCAAUAUUACGUUGU | -3.71 ± 0.21 | -3.39 ± 0.21
UGGAAGCAAUAUUACGUGGU | -3.53 ± 0.49 | -2.25 ± 0.3
UCCGAGCAAUAUUACGAGCA | -1.02 ± 0.1 | -0.767 ± 0.097
UGAGAGCAAUAUUACGGAAU |  | 1.01 ± 0.35
UACAAGCAAUAUUACGUUUC | -2.55 ± 0.2 | -1.72 ± 0.2
GCCGAGCAAUAUUACGGUCC | -3.18 ± 0.29 | -1.23 ± 0.33
CAAUAGCAAUAUUACGGAAU | -3.67 ± 0.35 | -3.11 ± 0.33
CUGAAGCAAUAUUACGAGGC | -3.15 ± 0.17 | -1.69 ± 0.16
CGCUAGCAAUAUUACGUUCU | -2.16 ± 0.11 | -1.67 ± 0.12
CUCUAGCAAUAUUACGUCCU | -2.87 ± 0.39 | 
